Experimental findings from publication PMC5123862 are described below.

In test [1] the target is Wild-type PCNA (human) (human) (UniProt P12004).
In test [2] the target is Monoubiquitinated PCNA ((Ub)3-PCNA): a single ubiquitin moiety on K164 of each monomer within a homotrimeric clamp ring (human) (UniProt P12004).

Chain of Wild-type PCNA (human) (human) (P12004 whole entry): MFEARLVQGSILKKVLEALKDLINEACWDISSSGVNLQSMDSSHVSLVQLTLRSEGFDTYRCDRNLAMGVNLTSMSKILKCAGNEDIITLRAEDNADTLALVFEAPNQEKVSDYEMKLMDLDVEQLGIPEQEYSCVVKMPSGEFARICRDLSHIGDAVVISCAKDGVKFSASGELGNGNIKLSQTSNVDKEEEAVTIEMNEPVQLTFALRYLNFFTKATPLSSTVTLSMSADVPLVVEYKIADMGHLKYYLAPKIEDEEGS

B1: Pol η (human DNA polymerase eta, full length, wild type, unlabeled) (enzyme)
chain: MATGQDRVVALVDMDCFFVQVEQRQNPHLRNKPCAVVQYKSWKGGGIIAVSYEARAFGVTRSMWADDAKKLCPDLLLAQVRESRGKANLTKYREASVEVMEIMSRFAVIERASIDEAYVDLTSAVQERLQKLQGQPISADLLPSTYIEGLPQGPTTAEETVQKEGMRKQGLFQWLDSLQIDNLTSPDLQLTVGAVIVEEMRAAIERETGFQCSAGISHNKVLAKLACGLNKPNRQTLVSHGSVPQLFSQMPIRKIRSLGGKLGASVIEILGIEYMGELTQFTESQLQSHFGEKNGSWLYAMCRGIEHDPVKPRQLPKTIGCSKNFPGKTALATREQVQWWLLQLAQELEERLTKDRNDNDRVATQLVVSIRVQGDKRLSSLRRCCALTRYDAHKMSHDAFTVIKNCNTSGIQTEWSPPLTMLFLCATKFSASAPSSSTDITSFLSSDPSSLPKVPVTSSEAKTQGSGPAVTATKKATTSLESFFQKAAERQKVKEASLSSLTAPTQAPMSNSPSKPSLPFQTSQSTGTEPFFKQKSLLLKQKQLNNSSVSSPQQNPWSNCKALPNSLPTEYPGCVPVCEGVSKLEESSKATPAEMDLAHNSQSMHASSASKSVLEVTQKATPNPSLLAAEDQVPCEKCGSLVPVWDMPEHMDYHFALELQKSFLQPHSSNPQVVSAVSHQGKRNPKSPLACTNKRPRPEGMQTLESFFKPLTH
For B1, in test [1], the abundance of the pol η TLS complex (P2, probability of insertion at i = 2) on undamaged TT P/T DNA: increase in the presence of PCNA was 2.53 fold and the primer extension by pol η on the undamaged TT P/T DNA substrate under single turnover conditions: stimulation in the presence of PCNA against pol η alone is 2.02 fold. Also, the abundance of the pol η TLS complex (P2, probability of insertion at i = 2) on undamaged TT P/T DNA: increase in the presence of (Ub)3-PCNA in test [2] was 2.75 fold.
